These results are taken from patent US20240174754A1 (published 2024).

In test [1] the target is Human CD8+ T Cells. Description: FACS binding to human CD8+ T cells; Donor KP63715. (A flow cytometer gives signals particle by particle.)
In test [2] the target is Human CD8+ T Cells. Description: FACS binding to human CD8+ T cells; Donor KP63218.

B1: PA015 (antibody, V domains shown)
VH: QVTLRESGPALVKPTQTLTLTCTVSGFSLSTFGMGVGWIRQPPGKALEWLAHIWWDDDKWYELALKSRLTISKDTSKNQVVLTITNMDPVDTATYYCARVIYYGSRSAYYSMDYWGQGTTVTVSS
VL: DVVMTQTPLSLSVTPGQPASISCKSSQSIVHSNAHTYLEWYLQKPGQSPQLLIYKVSNRFSGVPDRFSGSGSGTDFTLKISRVEAEDVGVYYCFQGSHVPVTFGQGTKLEIKR
One may read the EC50 as the concentration giving half of the maximal effect. With B1, the concentration for a half-maximal effect (EC50) came to 3.18 ng/mL with Human CD8+ T Cells [1] and 10.8 ng/mL with Human CD8+ T Cells [2].
